Assays:
SARS-CoV-2 WT RBD蛋白 = SARS-CoV-2 WT RBD蛋白 (SARS-CoV-2, UniProt P0DTC2 319-541)
SARS-CoV-2野生型病毒的S蛋白 = SARS-CoV-2野生型病毒的S蛋白 (SARS-CoV-2, UniProt P0DTC2 14-1273); assay: cell-based or functional assay

B1: 全人源抗SARS-CoV-2单克隆抗体ZWD12 (antibody, V domains shown)
VH: EVQLVESGGGLVQPGGTLRLSCVASGFSFSNYWMSWVRQAPGKGLEWVANIKQDGSETHYVDSVKGRFTISRDNAKNSLYLQMNSLRADDTAVYFCVKDRTDWELIRGYFGHWGQGTQITVSS
VL: DIVMTQTPSSLSLSPGDRATLSCRASENIINYLAWYQQRPGQSPRLLIYDASNRATGIPARFSGSGSGTDFTLTISSLEPEDFAVYYCQQRIIWPPYTFGQGTKVDIKR
- Kd (SARS-CoV-2 WT RBD蛋白): 0.356 nM
- koff (SARS-CoV-2 WT RBD蛋白): 0.000167 s⁻¹
- kon (SARS-CoV-2 WT RBD蛋白): 468000 M⁻¹ s⁻¹
- 假病毒中和 EC50 (luciferase, HEK293T cells) (SARS-CoV-2野生型病毒的S蛋白): 0.00586 µg/mL
- 真病毒中和 EC50 (Vero E6 cells, crystal violet) (SARS-CoV-2野生型病毒的S蛋白): 0.103 µg/mL
